From the supplement of paper PMC9112550, “Optimization of the antimicrobial peptide Bac7 by deep mutational scanning” (BMC Biology, 2022) come the findings set out here.

For the series, the system named is Escherichia coli TOP10. Briefly: shrunken log2 fold change of peptide-encoding DNA abundance (4.5 h post-induction vs induction); higher = less antimicrobial activity (less host growth inhibition). The settings on record: time post-induction: 4.5 h; library: site-saturation at positions 5, 18, 19, 20.
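Further: peptides expressed intracellularly from a pBAD plasmid library in pooled LB shake-flask culture, induced with 0.3% L-arabinose, DNA abundance read by NGS, three biological replicates, DESeq2 with apeglm shrinkage.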

For the sequence RRIRHRPPRLPRPRPRPLVQPRP, the “shrunken log2 fold change” value was -0.0987.

For RRIRWRPPRLPRPRPRPMRHPRP, the “shrunken log2 fold change” value was 0.228. Under RRIRPRPPRLPRPRPRPIYQPRP stands -0.35; under RRIRQRPPRLPRPRPRPEEEPRP, 0.00797; under RRIRGRPPRLPRPRPRPPAWPRP, 1.34. The value for RRIRVRPPRLPRPRPRPNDPPRP was -0.0659; that for RRIRQRPPRLPRPRPRPSAIPRP was -0.399. Under RRIRNRPPRLPRPRPRPWWPPRP stands -0.218; under RRIRERPPRLPRPRPRPVQCPRP, 0.00166. In the case of RRIRDRPPRLPRPRPRPFVIPRP, the “shrunken log2 fold change” value worked out at 0.129. Under RRIRGRPPRLPRPRPRPYGDPRP stands -0.176; under RRIRARPPRLPRPRPRPSMKPRP, -0.037. Under RRIRLRPPRLPRPRPRPGMNPRP stands -0.72; under RRIRARPPRLPRPRPRPFHWPRP, 0.277.

Take RRIRWRPPRLPRPRPRPDIFPRP: the “shrunken log2 fold change” value was -0.029. Turning to RRIRHRPPRLPRPRPRPWDIPRP, the “shrunken log2 fold change” value came to 0.0726.

For RRIRWRPPRLPRPRPRPEFDPRP, the “shrunken log2 fold change” value is 0.198.

For the sequence RRIRHRPPRLPRPRPRPLWNPRP, the “shrunken log2 fold change” value is -1.07. Under RRIRARPPRLPRPRPRPDCPPRP stands 0.337; under RRIRKRPPRLPRPRPRPDESPRP, 0.0701. With RRIRTRPPRLPRPRPRPDSRPRP, the “shrunken log2 fold change” value was -0.00822. Under RRIRHRPPRLPRPRPRPADFPRP stands 0.116; under RRIRDRPPRLPRPRPRPTPDPRP, 0.536.

Take RRIRQRPPRLPRPRPRPWHGPRP: the “shrunken log2 fold change” value worked out at 0.0373.

Take RRIRNRPPRLPRPRPRPLMPPRP: the “shrunken log2 fold change” value was -0.173.

As for RRIRVRPPRLPRPRPRPFKRPRP, the “shrunken log2 fold change” value was -0.165.

Turning to RRIRPRPPRLPRPRPRPRTWPRP, the “shrunken log2 fold change” value was determined as 0.537. Under RRIRNRPPRLPRPRPRPNSRPRP stands -0.266; under RRIRSRPPRLPRPRPRPYVDPRP, -0.594; under RRIRHRPPRLPRPRPRPRSMPRP, -0.241. The value for RRIRGRPPRLPRPRPRPTWYPRP was 0.159; that for RRIRQRPPRLPRPRPRPPHPPRP was 0.548; that for RRIRCRPPRLPRPRPRPYCFPRP was -0.783. For RRIRARPPRLPRPRPRPKNTPRP, the “shrunken log2 fold change” value was -0.0664. Under RRIRSRPPRLPRPRPRPYARPRP stands -0.351; under RRIRWRPPRLPRPRPRPPLVPRP, 0.443. The value for RRIRHRPPRLPRPRPRPCWPPRP was -0.106; that for RRIRFRPPRLPRPRPRPLNEPRP was -0.226.

As to RRIRPRPPRLPRPRPRPDLVPRP, the “shrunken log2 fold change” value was -0.0293. Take RRIRRRPPRLPRPRPRPWYSPRP: the “shrunken log2 fold change” value was -0.0705. RRIRFRPPRLPRPRPRPHIRPRP: the “shrunken log2 fold change” value was -0.113. Regarding RRIRFRPPRLPRPRPRPVLHPRP, the “shrunken log2 fold change” value is -0.376. As for RRIRARPPRLPRPRPRPQVIPRP, the “shrunken log2 fold change” value was -0.109. The value for RRIRDRPPRLPRPRPRPDCCPRP was -0.0205; that for RRIRSRPPRLPRPRPRPGLNPRP was -0.207. Regarding RRIRMRPPRLPRPRPRPKQIPRP, the “shrunken log2 fold change” value was 0.371. For the sequence RRIRERPPRLPRPRPRPWSNPRP, the “shrunken log2 fold change” value is -0.0583. Consider RRIRTRPPRLPRPRPRPNSKPRP, for which the “shrunken log2 fold change” value is -0.848. On to RRIRRRPPRLPRPRPRPKTQPRP, for which the “shrunken log2 fold change” value amounted to 0.273. For RRIRQRPPRLPRPRPRPGEKPRP, the “shrunken log2 fold change” value is 0.139.

Take RRIRHRPPRLPRPRPRPWVCPRP: the “shrunken log2 fold change” value is -0.044. The value for RRIRTRPPRLPRPRPRPVTIPRP was -0.0419; that for RRIRCRPPRLPRPRPRPWLNPRP was -0.752.

Turning to RRIRIRPPRLPRPRPRPWIWPRP, the “shrunken log2 fold change” value is -0.109. Consider RRIRNRPPRLPRPRPRPMNWPRP, for which the “shrunken log2 fold change” value stood at 0.127.

As for RRIRIRPPRLPRPRPRPCYFPRP, the “shrunken log2 fold change” value is -0.906.

For the sequence RRIRMRPPRLPRPRPRPGQWPRP, the “shrunken log2 fold change” value is 0.204. Regarding RRIRVRPPRLPRPRPRPDIEPRP, the “shrunken log2 fold change” value is -0.0848. For the sequence RRIRLRPPRLPRPRPRPFFDPRP, the “shrunken log2 fold change” value was -0.0987. In the case of RRIRTRPPRLPRPRPRPQRVPRP, the “shrunken log2 fold change” value was -0.0793. The value for RRIRNRPPRLPRPRPRPIQHPRP was -0.0743. RRIRKRPPRLPRPRPRPSCDPRP: the “shrunken log2 fold change” value turned out to be 0.141.

RRIRTRPPRLPRPRPRPTPAPRP: the “shrunken log2 fold change” value came out at 0.57. Under RRIRVRPPRLPRPRPRPMLCPRP stands 0.121. Under RRIRCRPPRLPRPRPRPPIYPRP stands -0.253. The value for RRIRLRPPRLPRPRPRPIYVPRP was -0.0939. In the case of RRIRFRPPRLPRPRPRPTRSPRP, the “shrunken log2 fold change” value was determined as 0.189. RRIRDRPPRLPRPRPRPTKIPRP: the “shrunken log2 fold change” value came out at 0.0599. Under RRIRPRPPRLPRPRPRPIHWPRP stands 0.225; under RRIRERPPRLPRPRPRPIISPRP, -0.209. For the sequence RRIRVRPPRLPRPRPRPFNMPRP, the “shrunken log2 fold change” value was -0.19. Take RRIRYRPPRLPRPRPRPTGCPRP: the “shrunken log2 fold change” value is -0.0275. The value for RRIRGRPPRLPRPRPRPSLNPRP was 0.105; that for RRIRRRPPRLPRPRPRPMYYPRP was -0.232; that for RRIRLRPPRLPRPRPRPPAYPRP was 0.0545. The value for RRIRVRPPRLPRPRPRPWNSPRP was -0.106; that for RRIRVRPPRLPRPRPRPCMLPRP was -0.606; that for RRIRSRPPRLPRPRPRPNFIPRP was -0.391.

Take RRIRPRPPRLPRPRPRPCDLPRP: the “shrunken log2 fold change” value is -0.428. For the sequence RRIRFRPPRLPRPRPRPFAFPRP, the “shrunken log2 fold change” value is -0.239. For the sequence RRIRVRPPRLPRPRPRPYICPRP, the “shrunken log2 fold change” value is -0.468.

In the case of RRIRWRPPRLPRPRPRPPAKPRP, the “shrunken log2 fold change” value came to 0.56. Regarding RRIRGRPPRLPRPRPRPQEAPRP, the “shrunken log2 fold change” value came out at 0.492. As for RRIRMRPPRLPRPRPRPKDVPRP, the “shrunken log2 fold change” value was -0.000921. Under RRIRLRPPRLPRPRPRPTLKPRP stands -0.307; under RRIRVRPPRLPRPRPRPDFRPRP, 0.00256; under RRIRYRPPRLPRPRPRPQEKPRP, -0.0798. Consider RRIRIRPPRLPRPRPRPYESPRP, for which the “shrunken log2 fold change” value was -0.0135.

In the case of RRIRPRPPRLPRPRPRPIDGPRP, the “shrunken log2 fold change” value was determined as 0.023. The value for RRIRHRPPRLPRPRPRPMPHPRP was -0.131; that for RRIRYRPPRLPRPRPRPGHCPRP was -0.0945; that for RRIRFRPPRLPRPRPRPQWKPRP was -0.0239.

For RRIRVRPPRLPRPRPRPWKQPRP, the “shrunken log2 fold change” value was -0.0479.

Consider RRIRNRPPRLPRPRPRPVWIPRP, for which the “shrunken log2 fold change” value is -0.111.

For the sequence RRIRERPPRLPRPRPRPHGRPRP, the “shrunken log2 fold change” value turned out to be 0.0279.

For RRIRKRPPRLPRPRPRPFHSPRP, the “shrunken log2 fold change” value was determined as 0.00367. Under RRIRPRPPRLPRPRPRPACNPRP stands 0.00285; under RRIRPRPPRLPRPRPRPRCLPRP, -0.0858; under RRIRARPPRLPRPRPRPKQKPRP, 0.529. Under RRIRNRPPRLPRPRPRPCWQPRP stands -0.0118.

As for RRIRKRPPRLPRPRPRPWLFPRP, the “shrunken log2 fold change” value was found to be 0.202. Under RRIRFRPPRLPRPRPRPTQQPRP stands 0.312; under RRIRWRPPRLPRPRPRPHYQPRP, -0.00398; under RRIRCRPPRLPRPRPRPWLCPRP, -0.182.

Take RRIRFRPPRLPRPRPRPFLMPRP: the “shrunken log2 fold change” value was -0.263. Under RRIRTRPPRLPRPRPRPMSDPRP stands -0.0819; under RRIRSRPPRLPRPRPRPEFFPRP, -0.0464. As to RRIRPRPPRLPRPRPRPLISPRP, the “shrunken log2 fold change” value was -0.17. The value for RRIRTRPPRLPRPRPRPNHYPRP was -0.679; that for RRIRERPPRLPRPRPRPKHLPRP was -0.202; that for RRIRERPPRLPRPRPRPQASPRP was -0.328.

On to RRIRVRPPRLPRPRPRPRGLPRP, for which the “shrunken log2 fold change” value was 0.307.

Turning to RRIRNRPPRLPRPRPRPCCSPRP, the “shrunken log2 fold change” value is -0.0427. The value for RRIRIRPPRLPRPRPRPMWRPRP was 0.19. For RRIRYRPPRLPRPRPRPVYGPRP, the “shrunken log2 fold change” value is -0.0722.

On to RRIRIRPPRLPRPRPRPCAVPRP, for which the “shrunken log2 fold change” value is -0.431. Turning to RRIRLRPPRLPRPRPRPSRHPRP, the “shrunken log2 fold change” value was -0.415.

For the sequence RRIRGRPPRLPRPRPRPEEDPRP, the “shrunken log2 fold change” value was -0.0499. Take RRIRVRPPRLPRPRPRPNMDPRP: the “shrunken log2 fold change” value was -0.506. The value for RRIRWRPPRLPRPRPRPEYSPRP was 0.0675; that for RRIRFRPPRLPRPRPRPGQSPRP was 0.0525. The value for RRIRWRPPRLPRPRPRPHPSPRP was 0.452.

For the sequence RRIRERPPRLPRPRPRPMLNPRP, the “shrunken log2 fold change” value was -0.106. Under RRIRPRPPRLPRPRPRPFRIPRP stands 0.000199; under RRIRHRPPRLPRPRPRPKFMPRP, -0.497.
